Data set [1] concerns HeLa Kyoto. Description: solubility in G1/S (NP-40 vs SDS abundance) (log2 ratio); higher = more soluble. The following applies: cell cycle stage: G1/S.
Data set [2] deals with HeLa Kyoto. The data set can be described thus: thermal stability score vs G1/S (z-score of summed log2 fold changes over temperatures); higher = more thermally stable than in G1/S.
Data set [3] deals with HeLa Kyoto. Description: melting temperature (median over replicates), in situ; higher = more thermally stable.
Data set [4] relates to HeLa Kyoto. The data set can be described thus: solubility change mitosis vs G1/S (difference of NP-40 vs SDS log2 ratios) (log2 ratio difference); higher = more soluble in mitosis.
Setting [5] is: cell cycle stage: early G1 (4.5 h after nocodazole release).
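Throughout, for melting temperature (median over replicates), in situ: HeLa Kyoto cells synchronized by double thymidine or nocodazole block, proteins quantified by TMT10plex mass spectrometry, three independent biological replicates.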
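Throughout, for solubility change mitosis vs G1/S (difference of NP-40 vs SDS log2 ratios): synchronized HeLa Kyoto cells (double thymidine block for G1/S, nocodazole release for mitosis), protein amounts in NP-40 versus SDS lysates quantified by mass spectrometry, three biological replicates.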
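Throughout, for solubility in G1/S (NP-40 vs SDS abundance): HeLa Kyoto cells arrested at G1/S by double thymidine block, proteins quantified by TMT10plex mass spectrometry in mild NP-40 versus SDS extracts, three biological replicates.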
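Throughout, for thermal stability score vs G1/S (z-score of summed log2 fold changes over temperatures): synchronized HeLa Kyoto cells, proteins quantified by TMT10plex mass spectrometry, three biological replicates, mitosis taken 0.5 h after nocodazole release, G1/S directly after double thymidine block.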

As to “MWIPVVGLPRRLRLSALAGAGRFCILGSEAATRKHLPARNHCGLSDSSPQLWPEPDFRNPPRKASKASLDFKRYVTDRRLAETLAQIYLGKPSRPPHLLLECNPGPGILTQALLEAGAKVVALESDKTFIPHLESLGKNLDGKLRVIHCDFFKLDPRSGGVIKPPAMSSRGLFKNLGIEAVPWTADIPLKVVGMFPSRGEKRALWKLAYDLYSCTSIYKFGRIEVNMFIGEKEFQKLMADPGNPDLYHVLSVIWQLACEIKVLHMEPWSSFDIYTRKGPLENPKRRELLDQLQQKLYLIQMIPRQNLFTKNLTPMNYNIFFHLLKHCFGRRSATVIDHLRSLTPLDARDILMQIGKQEDEKVVNMHPQDFKTLFETIERSKDCAYKWLYDETLEDR [TFB2M]”, the “solubility in G1/S (log2)” value in the data set on HeLa Kyoto [1] came out at 0.194. The thermal stability score with HeLa Kyoto [2] (setting [5]) stood at 0.218; with HeLa Kyoto [2] (cell cycle stage: mitosis) it was 1. In addition, the melting temperature stood at 50.5 °C with HeLa Kyoto [3] (cell cycle stage: G1/S) and 50.7 °C in the data set with HeLa Kyoto [3] (cell cycle stage: mitosis). Also, the “solubility change mitosis (log2)” value in the data set on HeLa Kyoto [4] is -0.038.
As for “MWLAAAAPSLARRLLFLGPPPPPLLLLVFSRSSRRRLHSLGLAAMPEKRPFERLPADVSPINYSLCLKPDLLDFTFEGKLEAAAQVRQATNQIVMNCADIDIITASYAPEGDEEIHATGFNYQNEDEKVTLSFPSTLQTGTGTLKIDFVGELNDKMKGFYRSKYTTPSGEVRYAAVTQFEATDARRAFPCWDEPAIKATFDISLVVPKDRVALSNMNVIDRKPYPDDENLVEVKFARTPVMSTYLVAFVVGEYDFVETRSKDGVCVRVYTPVGKAEQGKFALEVAAKTLPFYKDYFNVPYPLPKIDLIAIADFAAGAMENWGLVTYRETALLIDPKNSCSSSRQWVALVVGHELAHQWFGNLVTMEWWTHLWLNEGFASWIEYLCVDHCFPEYDIWTQFVSADYTRAQELDALDNSHPIEVSVGHPSEVDEIFDAISYSKGASVIRMLHDYIGDKDFKKGMNMYLTKFQQKNAATEDLWESLENASGKPIAAVMNTWTKQMGFPLIYVEAEQVEDDRLLRLSQKKFCAGGSYVGEDCPQWMVPITISTSEDPNQAKLKILMDKPEMNVVLKNVKPDQWVKLNLGTVGFYRTQYSSAMLESLLPGIRDLSLPPVDRLGLQNDLFSLARAGIISTVEVLKVMEAFVNEPNYTVWSDLSCNLGILSTLLSHTDFYEEIQEFVKDVFSPIGERLGWDPKPGEGHLDALLRGLVLGKLGKAGHKATLEEARRRFKDHVEGKQILSADLRSPVYLTVLKHGDGTTLDIMLKLHKQADMQEEKNRIERVLGATLLPDLIQKVLTFALSEEVRPQDTVSVIGGVAGGSKHGRKAAWKFIKDNWEELYNRYQGGFLISRLIKLSVEGFAVDKMAGEVKAFFESHPAPSAERTIQQCCENILLNAAWLKRDAESIHQYLLQRKASPPTV [NPEPPS]”, the “solubility in G1/S (log2)” value in the data set on HeLa Kyoto [1] amounted to 0.0254. In addition, the thermal stability score in the data set on HeLa Kyoto [2] (setting [5]) is -0.503; with HeLa Kyoto [2] (cell cycle stage: mitosis), -1.51. The figures for the melting temperature in the data set with HeLa Kyoto [3] (cell cycle stage: G1/S) and in the data set with HeLa Kyoto [3] (cell cycle stage: mitosis) were 53.9 °C and 53.6 °C, respectively. Also, the “solubility change mitosis (log2)” value in the data set with HeLa Kyoto [4] is -0.148.
Consider “MWSGRSSFTSLVVGVFVVYVVHTCWVMYGIVYTRPCSGDANCIQPYLARRPKLQLSVYTTTRSHLGAENNIDLVLNVEDFDVESKFERTVNVSVPKKTRNNGTLYAYIFLHHAGVLPWHDGKQVHLVSPLTTYMVPKPEEINLLTGESDTQQIEAEKKPTSALDEPVSHWRPRLALNVMADNFVFDGSSLPADVHRYMKMIQLGKTVHYLPILFIDQLSNRVKDLMVINRSTTELPLTVSYDKVSLGRLRFWIHMQDAVYSLQQFGFSEKDADEVKGIFVDTNLYFLALTFFVAAFHLLFDFLAFKNDISFWKKKKSMIGMSTKAVLWRCFSTVVIFLFLLDEQTSLLVLVPAGVGAAIELWKVKKALKMTIFWRGLMPEFQFGTYSESERKTEEYDTQAMKYLSYLLYPLCVGGAVYSLLNIKYKSWYSWLINSFVNGVYAFGFLFMLPQLFVNYKLKSVAHLPWKAFTYKAFNTFIDDVFAFIITMPTSHRLACFRDDVVFLVYLYQRWLYPVDKRRVNEFGESYEEKATRAPHTD [CLPTM1L]”, for which the “solubility in G1/S (log2)” value in the data set with HeLa Kyoto [1] is -0.0724. The figures for the thermal stability score in the data set on HeLa Kyoto [2] (setting [5]) and with HeLa Kyoto [2] (cell cycle stage: mitosis) were -1.1 and -1.25, respectively. The melting temperature turned out to be 52.8 °C in the data set with HeLa Kyoto [3] (cell cycle stage: G1/S) and 53.2 °C in the data set on HeLa Kyoto [3] (cell cycle stage: mitosis). In addition, the “solubility change mitosis (log2)” value in the data set with HeLa Kyoto [4] is -0.226.
Turning to “MWTFLGIATFTYFYKKFGDFITLANREVLLCVLVFLSLGLVLSYRCRHRNGGLLGRQQSGSQFALFSDILSGLPFIGFFWAKSPPESENKEQLEARRRRKGTNISETSLIGTAACTSTSSQNDPEVIIVGAGVLGSALAAVLSRDGRKVTVIERDLKEPDRIVGEFLQPGGYHVLKDLGLGDTVEGLDAQVVNGYMIHDQESKSEVQIPYPLSENNQVQSGRAFHHGRFIMSLRKAAMAEPNAKFIEGVVLQLLEEDDVVMGVQYKDKETGDIKELHAPLTVVADGLFSKFRKSLVSNKVSVSSHFVGFLMKNAPQFKANHAELILANPSPVLIYQISSSETRVLVDIRGEMPRNLREYMVEKIYPQIPDHLKEPFLEATDNSHLRSMPASFLPPSSVKKRGVLLLGDAYNMRHPLTGGGMTVAFKDIKLWRKLLKGIPDLYDDAAIFEAKKSFYWARKTSHSFVVNILAQALYELFSATDDSLHQLRKACFLYFKLGGECVAGPVGLLSVLSPNPLVLIGHFFAVAIYAVYFCFKSEPWITKPRALLSSGAVLYKACSVIFPLIYSEMKYMVH [SQLE]”, the “solubility in G1/S (log2)” value in the data set with HeLa Kyoto [1] is -0.21. Besides, the thermal stability score is -0.599 in the data set with HeLa Kyoto [2] (setting [5]) and -0.00194 with HeLa Kyoto [2] (cell cycle stage: mitosis). Also, the figures for the melting temperature in the data set with HeLa Kyoto [3] (cell cycle stage: G1/S) and with HeLa Kyoto [3] (cell cycle stage: mitosis) were 52.7 °C and 53.3 °C, respectively. Also, the “solubility change mitosis (log2)” value in the data set on HeLa Kyoto [4] is -0.0643.

The values are drawn from the supplement of paper PMC5998384.
